Test results published in PMC12859505.

Assays:
[1] = biological target: HA- and RLuc8-tagged CXCR5 (HA-CXCR5-Rluc8) in ΔQ-GRK HEK293 cells (GRK2/3/5/6 deleted; not phosphorylated by GRKs) (UniProt P32302)
[2] = biological target: HA- and RLuc8-tagged CXCR5 (HA-CXCR5-Rluc8), CXCL13-stimulated, in cells that express GRKs (GRK-phosphorylated) (UniProt P32302)

- potency (EC50) of CXCL13 (1-100 nM) for G protein activation by FLAG-CXCR5 in ΔQ-GRK HEK293 cells: loss of BRET between Gαi1-Rluc8 and Gβ3γ9-GFP2 (TRUEPATH), area under the curve [1]: 0.85 nM
- potency (EC50) of CXCL13 (1-100 nM) for G protein activation by FLAG-CXCR5 in WT HEK293 cells: loss of BRET between Gαi1-Rluc8 and Gβ3γ9-GFP2 (TRUEPATH), area under the curve [2]: 1 nM
B1: CXCL13 (ligand)
chain: VLEVYYTSLRCRCVQESSVFIPRRFIDRIQILPRGNGCPRKEIIVWKKNKSIVCVDPQAEWIQRMMEVLRKRSSSTLPVPVFKRKIP
